Assay results reported in US20210230599, “STEM-LOOP COMPOSITIONS AND METHODS FOR INHIBITING INTERLEUKIN-8” (VITRISA THERAPEUTICS, INC., published 2021).

target: T1, Interleukin-8 (IL8, CXCL8), C-terminal His-tagged (Homo sapiens, UniProt P10145 SEQ:1-72); assay: competition; competition TR-FRET; conditions: tags: C-terminal 6xHis (Sino Biological)
Procedure: (§1) Activity of each of these variants were tested using a time resolved competition TR-FRET assay in which the labeled parent Aptamer 3 was competed with increasing concentrations of unlabeled variants for binding to IL8 (FIG. 14). Briefly, 2-fold dilutions of thermally equilibrated aptamers were made in TR-FRET Buffer (50 mM MOPS, pH 7.4, 125 mM NaCl, 5 mM KCl, 50 μM CHAPS, 0.1 mg/mL BSA, 1 mM CaCl₂, and 1 mM MgCl₂). 5 μL of aptamer or control solution was added to 5 μl mix of 10 nM C-terminal His-tagged-IL8, 60 nM ALEXA FLUOR® 647-labeled Aptamer, and 5 nM anti-His-Eu (Perkin Elmer) in a black wall low volume 384 well plate (Greiner). For control, 5 μl of 1000-fold excess of unlabeled parent aptamer or 5 μl TR-FRET buffer alone was added to the mix of ALEXA FLUOR® 647-labeled aptamer, His-IL8, and anti-His-Eu. The plate was covered with a plate seal and subsequently incubated in the dark for 1 hour at room temperature. The plate was read on a Biotek CYTATION™ 5 plate reader. Samples were excited at 330 nm and fluorescent values were collected at 665 nm. Data analysis was performed by subtracting the background value and plotting as percent inhibition, normalized to baseline in the absence of competitor. The values were fit by [Inhibitor] vs. response—Variable slope (four parameters) using GraphPad Prism Version 7.0 and then normalized to aptamer control to obtain an IC₅₀ relative to parent aptamer. Data is presented as log values of relative IC₅₀.
To better understand the sequence requirements and confirm the stem structures of members of the Aptamer 8 family as determined from sequence covariation analysis from both the primary and secondary (degenerate) selections, a series of variants which included mutations and deletions to the predicted stems (Tables 45 and 46) were synthesized and screened. Activity of each of these variants was tested using a competition TR-FRET assay in which the labeled parent Aptamer 8 was competed with increasing concentration of unlabeled variants for binding to IL8 as described in Example 11.

Binder	binding result	binding signal [fold worse than Aptamer 8]
CGAUGGGAAAUGUGAGAUGGGUUGUCG (ssRNA, 2'-F G, 2'-OMe A/C/U, 5' C6NH2, 3' idT) [Aptamer 218]	binds	–
CGGUGGGAAACCCGAGAUGGGUUGCCG (ssRNA, 2'-F G, 2'-OMe A/C/U, 5' C6NH2, 3' idT) [Aptamer 120]	–	> 10
CGGUGGGAAAUGCGAGAUGGGUUGCCG (ssRNA, 2'-F G, 2'-OMe A/C/U, 5' C6NH2, 3' idT) [Aptamer 115]	–	> 10
CGGUGGGAACCGUGAGAUGGGGUGCCG (ssRNA, 2'-F G, 2'-OMe A/C/U, 5' C6NH2, 3' idT) [Aptamer 155]	–	> 10
CGCUGGGAAAUGUGAGAUGGGUUGGCG (ssRNA, 2'-F G, 2'-OMe A/C/U, 5' C6NH2, 3' idT) [Aptamer 217]	binds	–
CGGUGGGAAACCUGAGAUGGGUUGCCG (ssRNA, 2'-F G, 2'-OMe A/C/U, 5' C6NH2, 3' idT) [Aptamer 119]	–	> 10
CGGUGGGAACUGUGAGAUGGGGUGCCG (ssRNA, 2'-F G, 2'-OMe A/C/U, 5' C6NH2, 3' idT) [Aptamer 154]	–	> 10
CUGUGGGAAAUGUGAGAUGGGUUGCAG (ssRNA, 2'-F G, 2'-OMe A/C/U, 5' C6NH2, 3' idT) [Aptamer 216]	binds	–
CGGUGGGACACCCGAGAUGGGUGGCCG (ssRNA, 2'-F G, 2'-OMe A/C/U, 5' C6NH2, 3' idT) [Aptamer 121]	–	> 10
CGGUGGGAAAUAUGAGAUGGGUUGCCG (ssRNA, 2'-F G, 2'-OMe A/C/U, 5' C6NH2, 3' idT) [Aptamer 113]	–	> 10
CGGUGGGAAAUGUGAGAUGGGAUGCCG (ssRNA, 2'-F G, 2'-OMe A/C/U, 5' C6NH2, 3' idT) [Aptamer 215]	–	> 10
CGGUGGGACACGCGAGAUGGGUGGCCG (ssRNA, 2'-F G, 2'-OMe A/C/U, 5' C6NH2, 3' idT) [Aptamer 118]	–	> 10
CGGUGGGAAACGCGAGAUGGGUUGCCG (ssRNA, 2'-F G, 2'-OMe A/C/U, 5' C6NH2, 3' idT) [Aptamer 117]	–	> 10
CGGUGGGAAAUUUGAGAUGGGUUGCCG (ssRNA, 2'-F G, 2'-OMe A/C/U, 5' C6NH2, 3' idT) [Aptamer 114]	–	> 10
CGGUGGGAAAUCUGAGAUGGGUUGCCG (ssRNA, 2'-F G, 2'-OMe A/C/U, 5' C6NH2, 3' idT) [Aptamer 112]	–	> 10

same assay, conditions: tags: C-terminal 6xHis (Sino Biological); stem-loop

Binder	binding result
CGGUGGGAAAUGUGAGAUGGGUUGCCG (ssRNA, 2'-F G, 2'-OMe A/C/U, 5' C6NH2, 3' idT) [Aptamer 32]	binds

target: T1, Interleukin-8 (IL8, CXCL8), C-terminal …; assay: competition; competition TR-FRET; conditions: tags: C-terminal 6xHis (Sino Biological); remark: another data set of the same source
Procedure: as §1, with “To better understand the sequence requirements and to confirm the stem structures of members of the Aptamer 3 family as determined from sequence covariation analysis from both the primary and secondary (degenerate) selections, a series of variants which included mutations and deletions to the predicted stems were synthesized and screened (Table 24). Activity” for “Activity”
To test the effects of variation in this region on aptamer function, aptamer clones from Round 5 of the degenerate selection which had mutations in loop L3 were synthesized (Table 26). All of the compounds were tested in the competition TR-FRET assay.

Binder	binding signal	binding result
UGAUGACGGUAGAUUAUGGGAAGUGUGACCGCAUCU (ssRNA, 2'-F G, 2'-OMe A/C/U, 5' C6NH2, 3' idT) [Aptamer 100]	> 10 fold better than Aptamer 3	–
UGAUGACGGUAGAUUUCGGGAAGUGUGACCGCAUCU (ssRNA, 2'-F G, 2'-OMe A/C/U, 5' C6NH2, 3' idT) [Aptamer 110]	–	binds
UGAUGACGAUAGAUUUCGGGUAGUGUGAUCGCAUCU (ssRNA, 2'-F G, 2'-OMe A/C/U, 5' C6NH2, 3' idT) [Aptamer 106]	–	binds
UGAUGACGGUAGAUUACGGGGAGUGUGACCGCAUCU (ssRNA, 2'-F G, 2'-OMe A/C/U, 5' C6NH2, 3' idT) [Aptamer 97]	–	binds
UGAUGACGGUAGAUUCCGGGUAGUGUGACCGCAUCU (ssRNA, 2'-F G, 2'-OMe A/C/U, 5' C6NH2, 3' idT) [Aptamer 95]	–	binds
UGAUGACGGUAGAUUAAGGGUAGUGUGACCGCAUCU (ssRNA, 2'-F G, 2'-OMe A/C/U, 5' C6NH2, 3' idT) [Aptamer 104]	–	binds
UGAUGACGGUAGAUAACGGGUAGAGUGACCGCAUCU (ssRNA, 2'-F G, 2'-OMe A/C/U, 5' C6NH2, 3' idT) [Aptamer 108]	–	binds
UGAUGACGGUAGAUAACGGGUAGUGUGACCGCAUCU (ssRNA, 2'-F G, 2'-OMe A/C/U, 5' C6NH2, 3' idT) [Aptamer 109]	–	binds
UGAUGACGGUAGAUUAUGGGUAGUGUGACCGCAUCU (ssRNA, 2'-F G, 2'-OMe A/C/U, 5' C6NH2, 3' idT) [Aptamer 111]	–	binds
UCAUGACGGUAGAUUUCGGGUAGUGUGACCGCAUGU (ssRNA, 2'-F G, 2'-OMe A/C/U, 5' C6NH2, 3' idT) [Aptamer 101]	–	binds
UGAUGACGGUAGAUUACGGGAAGUGUGACCGCAUCU (ssRNA, 2'-F G, 2'-OMe A/C/U, 5' C6NH2, 3' idT) [Aptamer 98]	–	binds
UGAUGACGGUAGAUUACGGGCAGUGUGACCGCAUCU (ssRNA, 2'-F G, 2'-OMe A/C/U, 5' C6NH2, 3' idT) [Aptamer 96]	–	binds
UGAUGACGGUAGAUUACGGGAAGAGUGACCGCAUCU (ssRNA, 2'-F G, 2'-OMe A/C/U, 5' C6NH2, 3' idT) [Aptamer 103]	–	binds
UGAUGACGGUAGAUUACGGGUUGUGUGACCGCAUCU (ssRNA, 2'-F G, 2'-OMe A/C/U, 5' C6NH2, 3' idT) [Aptamer 105]	–	binds
UCAUGACGGUAGAUUACGGGUAGAGUGACCGCAUGU (ssRNA, 2'-F G, 2'-OMe A/C/U, 5' C6NH2, 3' idT) [Aptamer 102]	–	binds

target: T1, Interleukin-8 (IL8, CXCL8), C-terminal …; assay: competition; competition TR-FRET; conditions: tags: C-terminal 6xHis (Sino Biological); remark: another data set of the same source
Procedure: as §1, with “To better understand the sequence requirements and to confirm the stem structures of members of the Aptamer 3 family as determined from sequence covariation analysis from both the primary and secondary (degenerate) selections, a series of variants which included mutations and deletions to the predicted stems were synthesized and screened (Table 24). Activity” for “Activity”

Binder	binding result	binding signal [fold worse than Aptamer 3]
UGCCGACGGUAGAUUACGGGUAGAGUGACCGCGGCU (ssRNA, 2'-F G, 2'-OMe A/C/U, 5' C6NH2, 3' idT) [Aptamer 208]	binds	–
UGGCGACGGUAGAUUACGGGUAGAGUGACCGCGCCU (ssRNA, 2'-F G, 2'-OMe A/C/U, 5' C6NH2, 3' idT) [Aptamer 210]	binds	–
GCGACGGCAGAUUACGGGUAGAGUGGCCGCGC (ssRNA, 2'-F G, 2'-OMe A/C/U, 5' C6NH2, 3' idT) [Aptamer 43]	–	> 10
UCAUGACGGUAGAUUACGGGUAGAGUGACCGCAUGU (ssRNA, 2'-F G, 2'-OMe A/C/U, 5' C6NH2, 3' idT) [Aptamer 183]	binds	–
UGAUGACAGUAGAUUACGGGUAGAGUGACUGCAUCU (ssRNA, 2'-F G, 2'-OMe A/C/U, 5' C6NH2, 3' idT) [Aptamer 185]	binds	–
UGAUGACGAUAGAUUACGGGUAGAGUGAUCGCAUCU (ssRNA, 2'-F G, 2'-OMe A/C/U, 5' C6NH2, 3' idT) [Aptamer 186]	binds	–
UGAUCACGGUAGAUUACGGGUAGAGUGACCGGAUCU (ssRNA, 2'-F G, 2'-OMe A/C/U, 5' C6NH2, 3' idT) [Aptamer 184]	binds	–
UGCUGACGGUAGAUUACGGGUAGAGUGACCGCAGCU (ssRNA, 2'-F G, 2'-OMe A/C/U, 5' C6NH2, 3' idT) [Aptamer 209]	binds	–
UCUUGACGGUAGAUUACGGGUAGAGUGACCGCAUCU (ssRNA, 2'-F G, 2'-OMe A/C/U, 5' C6NH2, 3' idT) [Aptamer 187]	binds	–

same assay, conditions: tags: C-terminal 6xHis (Sino Biological); stem-loop

Binder	binding result
GAUGACGGUAGAUUACGGGUAGAGUGACCGCAUC (ssRNA, 2'-F G, 2'-OMe A/C/U, 5' C6NH2, 3' idT) [Aptamer 38]	binds
GGCGACGGUAGAUUACGGGUAGAGUGACCGCGCC (ssRNA, 2'-F G, 2'-OMe A/C/U, 5' C6NH2, 3' idT) [Aptamer 92]	binds
